*1 amine or outer side, *2 acyl side, *3 side chain or, on linkers, in order; H or OH if unused. Side-chain parts run from the residue outwards. [ ]: non-standard residue; d: D form. The star is where a group is joined. γGlu = O=C(O)[C@H](CCC(=O)[*:2])N[*:1]; Desaminohistidyl = O=C(CCc1c[nH]cn1)*
Assays:
[1] = target: T1, human glucagon receptor (human, UniProt P47871 26-477); test: cell-based or functional assay
[2] = target: T1, human glucagon receptor; test: displacement of 125I-glucagon from BHK membranes with human glucagon receptor (SPA), Assay (II)(b)

T1 sequence (P47871 26-477): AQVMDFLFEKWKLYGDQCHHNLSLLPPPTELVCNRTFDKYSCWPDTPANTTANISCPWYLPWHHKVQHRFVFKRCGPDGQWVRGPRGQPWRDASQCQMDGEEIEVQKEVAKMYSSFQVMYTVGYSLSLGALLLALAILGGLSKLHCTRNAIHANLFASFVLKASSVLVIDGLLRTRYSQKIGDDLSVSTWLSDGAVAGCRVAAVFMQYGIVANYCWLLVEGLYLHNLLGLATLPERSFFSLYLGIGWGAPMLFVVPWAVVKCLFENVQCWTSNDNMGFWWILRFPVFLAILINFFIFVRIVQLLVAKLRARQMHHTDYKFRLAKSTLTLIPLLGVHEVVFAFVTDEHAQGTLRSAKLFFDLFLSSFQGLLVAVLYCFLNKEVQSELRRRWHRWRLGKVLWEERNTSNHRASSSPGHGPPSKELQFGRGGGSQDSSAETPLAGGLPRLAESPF

Binder | EC50 hGlucagonR (pM), CRE luciferase reporter in BHK cells [1] | IC50 [2]
[Desaminohistidyl]SHGTFTSDYSKYLEK([γGlu-γGlu-γGlu-γGlu-Ac])RRAQEFVQWLLST-OH (SMILES CC(=O)N[C@@H](CCC(=O)N[C@@H](CCC(=O)N[C@@H](CCC(=O)N[C@@H](CCC(=O)NCCCC[C@H](NC(=O)[C@H](CCC(=O)O)NC(=O)[C@H](CC(C)C)NC(=O)[C@H](Cc1ccc(O)cc1)NC(=O)[C@H](CCCCN)NC(=O)[C@H](CO)NC(=O)[C@H](Cc1ccc(O)cc1)NC(=O)[C@H](CC(=O)O)NC(=O)[C@H](CO)NC(=O)[C@@H](NC(=O)[C@H](Cc1ccccc1)NC(=O)[C@@H](NC(=O)CNC(=O)[C@H](Cc1c[nH]cn1)NC(=O)[C@H](CO)NC(=O)CCc1c[nH]cn1)[C@@H](C)O)[C@@H](C)O)C(=O)N[C@@H](CCCNC(=N)N)C(=O)N[C@@H](CCCNC(=N)N)C(=O)N[C@@H](C)C(=O)N[C@@H](CCC(N)=O)C(=O)N[C@@H](CCC(=O)O)C(=O)N[C@@H](Cc1ccccc1)C(=O)N[C@H](C(=O)N[C@@H](CCC(N)=O)C(=O)N[C@@H](Cc1c[nH]c2ccccc12)C(=O)N[C@@H](CC(C)C)C(=O)N[C@@H](CC(C)C)C(=O)N[C@@H](CO)C(=O)N[C@H](C(=O)O)[C@@H](C)O)C(C)C)C(=O)O)C(=O)O)C(=O)O)C(=O)O, Imp written X under substitutions) | 105 pM | 24.4 nM
[Desaminohistidyl]SHGTFTSDYSKYLESRRAK([γGlu-γGlu-γGlu-γGlu-Ac])EFVQWLLST-OH (SMILES CC(=O)N[C@@H](CCC(=O)N[C@@H](CCC(=O)N[C@@H](CCC(=O)N[C@@H](CCC(=O)NCCCC[C@H](NC(=O)[C@H](C)NC(=O)[C@H](CCCNC(=N)N)NC(=O)[C@H](CCCNC(=N)N)NC(=O)[C@H](CO)NC(=O)[C@H](CCC(=O)O)NC(=O)[C@H](CC(C)C)NC(=O)[C@H](Cc1ccc(O)cc1)NC(=O)[C@H](CCCCN)NC(=O)[C@H](CO)NC(=O)[C@H](Cc1ccc(O)cc1)NC(=O)[C@H](CC(=O)O)NC(=O)[C@H](CO)NC(=O)[C@@H](NC(=O)[C@H](Cc1ccccc1)NC(=O)[C@@H](NC(=O)CNC(=O)[C@H](Cc1c[nH]cn1)NC(=O)[C@H](CO)NC(=O)CCc1c[nH]cn1)[C@@H](C)O)[C@@H](C)O)C(=O)N[C@@H](CCC(=O)O)C(=O)N[C@@H](Cc1ccccc1)C(=O)N[C@H](C(=O)N[C@@H](CCC(N)=O)C(=O)N[C@@H](Cc1c[nH]c2ccccc12)C(=O)N[C@@H](CC(C)C)C(=O)N[C@@H](CC(C)C)C(=O)N[C@@H](CO)C(=O)N[C@H](C(=O)O)[C@@H](C)O)C(C)C)C(=O)O)C(=O)O)C(=O)O)C(=O)O, Imp written X under substitutions) | 41 pM | 7.6 nM
[Desaminohistidyl]SHGTFTSDYSKYLDARRAQDFVK([γGlu-γGlu-γGlu-γGlu-Ac])WLLST-OH (SMILES CC(=O)N[C@@H](CCC(=O)N[C@@H](CCC(=O)N[C@@H](CCC(=O)N[C@@H](CCC(=O)NCCCC[C@H](NC(=O)[C@@H](NC(=O)[C@H](Cc1ccccc1)NC(=O)[C@H](CC(=O)O)NC(=O)[C@H](CCC(N)=O)NC(=O)[C@H](C)NC(=O)[C@H](CCCNC(=N)N)NC(=O)[C@H](CCCNC(=N)N)NC(=O)[C@H](C)NC(=O)[C@H](CC(=O)O)NC(=O)[C@H](CC(C)C)NC(=O)[C@H](Cc1ccc(O)cc1)NC(=O)[C@H](CCCCN)NC(=O)[C@H](CO)NC(=O)[C@H](Cc1ccc(O)cc1)NC(=O)[C@H](CC(=O)O)NC(=O)[C@H](CO)NC(=O)[C@@H](NC(=O)[C@H](Cc1ccccc1)NC(=O)[C@@H](NC(=O)CNC(=O)[C@H](Cc1c[nH]cn1)NC(=O)[C@H](CO)NC(=O)CCc1c[nH]cn1)[C@@H](C)O)[C@@H](C)O)C(C)C)C(=O)N[C@@H](Cc1c[nH]c2ccccc12)C(=O)N[C@@H](CC(C)C)C(=O)N[C@@H](CC(C)C)C(=O)N[C@@H](CO)C(=O)N[C@H](C(=O)O)[C@@H](C)O)C(=O)O)C(=O)O)C(=O)O)C(=O)O, Imp written X under substitutions) | 4 pM | 0.9 nM
[Desaminohistidyl]SHGTFTSDYSKYLESRRAQEFVK([γGlu-γGlu-γGlu-γGlu-Ac])WLLET-OH (SMILES CC(=O)N[C@@H](CCC(=O)N[C@@H](CCC(=O)N[C@@H](CCC(=O)N[C@@H](CCC(=O)NCCCC[C@H](NC(=O)[C@@H](NC(=O)[C@H](Cc1ccccc1)NC(=O)[C@H](CCC(=O)O)NC(=O)[C@H](CCC(N)=O)NC(=O)[C@H](C)NC(=O)[C@H](CCCNC(=N)N)NC(=O)[C@H](CCCNC(=N)N)NC(=O)[C@H](CO)NC(=O)[C@H](CCC(=O)O)NC(=O)[C@H](CC(C)C)NC(=O)[C@H](Cc1ccc(O)cc1)NC(=O)[C@H](CCCCN)NC(=O)[C@H](CO)NC(=O)[C@H](Cc1ccc(O)cc1)NC(=O)[C@H](CC(=O)O)NC(=O)[C@H](CO)NC(=O)[C@@H](NC(=O)[C@H](Cc1ccccc1)NC(=O)[C@@H](NC(=O)CNC(=O)[C@H](Cc1c[nH]cn1)NC(=O)[C@H](CO)NC(=O)CCc1c[nH]cn1)[C@@H](C)O)[C@@H](C)O)C(C)C)C(=O)N[C@@H](Cc1c[nH]c2ccccc12)C(=O)N[C@@H](CC(C)C)C(=O)N[C@@H](CC(C)C)C(=O)N[C@@H](CCC(=O)O)C(=O)N[C@H](C(=O)O)[C@@H](C)O)C(=O)O)C(=O)O)C(=O)O)C(=O)O, Imp written X under substitutions) | 17 pM | 8.7 nM
[Desaminohistidyl]SHGTFTSDYSKYLESRRAQDFVK([γGlu-γGlu-γGlu-γGlu-Ac])WLLST-OH (SMILES CC(=O)N[C@@H](CCC(=O)N[C@@H](CCC(=O)N[C@@H](CCC(=O)N[C@@H](CCC(=O)NCCCC[C@H](NC(=O)[C@@H](NC(=O)[C@H](Cc1ccccc1)NC(=O)[C@H](CC(=O)O)NC(=O)[C@H](CCC(N)=O)NC(=O)[C@H](C)NC(=O)[C@H](CCCNC(=N)N)NC(=O)[C@H](CCCNC(=N)N)NC(=O)[C@H](CO)NC(=O)[C@H](CCC(=O)O)NC(=O)[C@H](CC(C)C)NC(=O)[C@H](Cc1ccc(O)cc1)NC(=O)[C@H](CCCCN)NC(=O)[C@H](CO)NC(=O)[C@H](Cc1ccc(O)cc1)NC(=O)[C@H](CC(=O)O)NC(=O)[C@H](CO)NC(=O)[C@@H](NC(=O)[C@H](Cc1ccccc1)NC(=O)[C@@H](NC(=O)CNC(=O)[C@H](Cc1c[nH]cn1)NC(=O)[C@H](CO)NC(=O)CCc1c[nH]cn1)[C@@H](C)O)[C@@H](C)O)C(C)C)C(=O)N[C@@H](Cc1c[nH]c2ccccc12)C(=O)N[C@@H](CC(C)C)C(=O)N[C@@H](CC(C)C)C(=O)N[C@@H](CO)C(=O)N[C@H](C(=O)O)[C@@H](C)O)C(=O)O)C(=O)O)C(=O)O)C(=O)O, Imp written X under substitutions) | 12 pM | 6.2 nM
